In US20220033484A1 (FAPON BIOTECH, published 2022):
Substitutions are numbered along the chain they refer to.

B1: Mutation 1-23 (antibody, V domains shown)
VH: EVQLQQSGPELVKPGASVKMSCKASGYTFTLYVIHWVKQKPGQGLEWIGYIYPYIDGTKYNEKFKGKATLTVDKSSSTAFMELSSLTSEDSAVYYCARSGYGGYGLAWLAYWGQGTLVTVSA
VL: QAVVIQESALTTSPGETVTLTCRSSTGAVTTSNYANWVQEKPDHLFTGLIGGSQNRAPGVPARFSGSLIGDKAALTITGAQTEDEAIYFCALVYSNHWVFGGGTKLTVLG
notes: Built as m8
B2: Mutation 1-49 (antibody, V domains shown)
VH: B1 VH with I34L, Y52N, I55L, G103N
VL: B1 VL with N33Q, H97N
notes: Built as m8
B3: Mutation 1-19 (antibody, V domains shown)
VH: B1 VH with L31I, I34L, Y52N, I55L, G103N
VL: B1 VL with H97Q
notes: Built as m8
B4: Mutation 1-17 (antibody, V domains shown)
VH: B1 VH with Y52N, I55L
VL: B1 VL with V29A, H97Q
notes: Built as m8
B5: Mutation 1-41 (antibody, V domains shown)
VH: B1 VH with Y52N, G103N
VL: B1 VL with H97Q
notes: Built as m8
B6: Mutation 1-11 (antibody, V domains shown)
VH: B1 VH with Y52N
VL: B1 VL with H97N
notes: Built as m8
B7: Mutation 1-45 (antibody, V domains shown)
VH: B1 VH with I34V, Y52Q, I55L, G103Q
VL: B1 VL with N33Q, H97Q
notes: Built as m8
B8: Mutation 1-53 (antibody, V domains shown)
VH: B1 VH with L31I, I34V
VL: B1 VL with H97Q
notes: Built as m8
B9: Mutation 1-46 (antibody, V domains shown)
VH: B1 VH with L31I, I34L, Y52N, G103N
VL: B1 VL with Q54N, H97N
notes: Built as m8
B10: Mutation 1-42 (antibody, V domains shown)
VH: B1 VH with I34V, Y52N, I55L, G103Q
VL: B1 VL with Q54N
notes: Built as m8
B11: Mutation 1-35 (antibody, V domains shown)
VH: B1 VH with Y52Q, I55L
VL: B1 VL with V29A, H97Q
notes: Built as m8
B12: Mutation 1-24 (antibody, V domains shown)
VH: B1 VH with L31I, I34V, I55L, G103Q
VL: B1 VL with V29A, N33Q, Q54N, H97N
notes: Built as m8
B13: Mutation 1-52 (antibody, V domains shown)
VH: B1 VH with L31I, I34V, Y52N, I55L, G103N
VL: B1 VL with V29A, N33Q, Q54N, H97N
notes: Built as m8
B14: Mutation 1-34 (antibody, V domains shown)
VH: B1 VH with I34L, Y52Q, G103N
VL: B1 VL with V29A, Q54N
notes: Built as m8
B15: Mutation 1-51 (antibody, V domains shown)
VH: B1 VH with L31I, I34V, Y52Q, G103Q
VL: B1 VL with V29A, N33Q, Q54N
notes: Built as m8
B16: Mutation 1-40 (antibody, V domains shown)
VH: B1 VH with L31I, I34L, Y52Q, I55L, G103N
VL: B1 VL with Q54N, H97N
notes: Built as m8
B17: Mutation 1-55 (antibody, V domains shown)
VH: B1 VH with L31I, I34V
VL: B1 VL with N33Q, H97N
notes: Built as m8
B18: Mutation 1-43 (antibody, V domains shown)
VH: B1 VH with L31I, I34L, G103N
VL: B1 VL with V29A, N33Q, H97Q
notes: Built as m8
B19: Mutation 1-50 (antibody, V domains shown)
VH: B1 VH with L31I
VL: B1 VL with V29A, N33Q
B20: Mutation 1-47 (antibody, V domains shown)
VH: B1 VH with Y52N, I55L
VL: B1 VL with V29A, N33Q
notes: Built as m8
B21: Mutation 1-30 (antibody, V domains shown)
VH: B1 VH with L31I, I34V, Y52Q, I55L, G103Q
VL: B1 VL with V29A, N33Q, Q54N, H97Q
notes: Built as m8
B22: Mutation 1-31 (antibody, V domains shown)
VH: B1 VH with L31I, I34L, Y52N, G103N
VL: B1 VL with V29A, N33Q, H97N
notes: Built as m8
B23: Mutation 1-28 (antibody, V domains shown)
VH: B1 VH with I34L, I55L, G103N
VL: B1 VL with V29A, N33Q, Q54N, H97Q
notes: Built as m8
B24: Mutation 1-32 (antibody, V domains shown)
VH: B1 VH with L31I, Y52N, I55L
VL: B1 VL with V29A, Q54N
notes: Built as m8
B25: Mutation 1-44 (antibody, V domains shown)
VH: B1 VH with L31I, Y52Q
VL: B1 VL with V29A, Q54N, H97N
notes: Built as m8
B26: Mutation 1-36 (antibody, V domains shown)
VH: B1 VH with L31I, I34V, Y52N, G103Q
VL: B1 VL with N33Q, Q54N
notes: Built as m8; CDR-VL1 cell printed 'VQ', read as V/Q
B27: Mutation 1-26 (antibody, V domains shown)
VH: B1 VH with L31I, I55L
VL: B1 VL with N33Q, Q54N, H97Q
notes: Built as m8
B28: Mutation 1-33 (antibody, V domains shown)
VH: B1 VH with I34V
VL: B1 VL with V29A, N33Q, H97N
notes: Built as m8
B29: Mutation 1-37 (antibody, V domains shown)
VH: B1 VH with L31I, I34L, Y52N, I55L, G103N
VL: B1 VL with N33Q, H97Q
notes: Built as m8
B30: Mutation 1-29 (antibody, V domains shown)
VH: B1 VH with Y52Q
VL: B1 VL with V29A, N33Q, H97N
notes: Built as m8
B31: Mutation 1-38 (antibody, V domains shown)
VH: B1 VH with L31I
VL: B1 VL with N33Q, Q54N, H97N
notes: Built as m8
B32: Mutation 1-25 (antibody, V domains shown)
VH: B1 VH with L31I, I34L, I55L, G103N
VL: B1 VL with V29A
notes: Built as m8
B33: Mutation 1-27 (antibody, V domains shown)
VH: B1 VH with I34V, I55L, G103Q
VL: B1 VL
notes: Built as m8
B34: Mutation 1-54 (antibody, V domains shown)
VH: B1 VH with L31I, I34V, Y52N, I55L, G103Q
VL: B1 VL with V29A, Q54N, H97Q
notes: Built as m8
B35: Mutation 1-48 (antibody, V domains shown)
VH: B1 VH with L31I, I34V, G103Q
VL: B1 VL with V29A, Q54N, H97Q
notes: Built as m8
B36: Mutation 1-39 (antibody, V domains shown)
VH: B1 VH with I34V, Y52Q, I55L, G103Q
VL: B1 VL with H97Q
notes: Built as m8

target: T1, cTnI quality control product recombinant protein (human, UniProt P19429 2-210, limits assumed); assay: AMC sensor, antibody immobilised, cTnI in solution
T1 construct: treated as the same molecule; also called cTnI antigen; cardiac troponin I
T1 sequence (P19429 2-210 limits assumed): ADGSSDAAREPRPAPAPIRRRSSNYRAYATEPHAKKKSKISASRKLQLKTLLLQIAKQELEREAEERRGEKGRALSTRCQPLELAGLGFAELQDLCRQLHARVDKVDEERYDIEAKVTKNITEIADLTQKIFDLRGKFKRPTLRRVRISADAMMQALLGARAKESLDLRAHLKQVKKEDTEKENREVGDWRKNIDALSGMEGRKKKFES
Method: Operating process: it is equilibrated in Buffer 1 (PBST) for 60 s, the antibody is immobilized in an antibody solution for 300 s, incubated in Buffer 2 (PBST) for 180 s, bound in antigen solution for 420 s, dissociated in the Buffer 2 for 1200 s, 10 mM of GLY solution with pH 1.69 and Buffer 3 are used for sensor regeneration, and data is output. KD represents an equilibrium dissociation constant, namely the affinity; Kon represents a binding rate; and Kd is represents a dissociation rate.

| Kd [nM] | koff [s⁻¹] | kon [M⁻¹ s⁻¹] | Binder |
| --- | --- | --- | --- |
| 8.49 | 0.000353 | 41600 | B1 |
| 1.51 | 0.000134 | 88400 | B2 |
| 4.81 | 0.000274 | 57000 | B3 |
| 7.37 | 0.000237 | 32100 | B4 |
| 7.89 | 0.000647 | 82000 | B5 |
| 4.23 | 0.000142 | 33500 | B6 |
| 7.41 | 0.000286 | 38600 | B7 |
| 8.38 | 0.000543 | 64800 | B8 |
| 5.41 | 0.000217 | 40100 | B9 |
| 0.821 | 6.8e-05 | 82800 | B10 |
| 0.832 | 4.31e-05 | 51800 | B11 |
| 0.63 | 3.62e-05 | 57400 | B12 |
| 6.01 | 0.000492 | 81800 | B13 |
| 3.41 | 0.000198 | 58000 | B14 |
| 7.3 | 0.000223 | 30500 | B15 |
| 1.85 | 4.05e-05 | 21900 | B16 |
| 4.31 | 0.000239 | 55400 | B17 |
| 0.464 | 3.38e-05 | 72900 | B18 |

| Kd [nM] | koff [s⁻¹] | kon [M⁻¹ s⁻¹] | Binder |
| --- | --- | --- | --- |
| 4.61 | 0.000233 | 50500 | B19 |
| 3.05 | 0.000196 | 64100 | B20 |
| 3.71 | 0.00022 | 59500 | B21 |
| 9.41 | 0.00034 | 36100 | B22 |
| 1.76 | 0.000158 | 89600 | B23 |
| 0.765 | 5.3e-05 | 69300 | B24 |
| 6.56 | 0.000205 | 31300 | B25 |
| 3.29 | 0.000118 | 36000 | B26 |
| 0.465 | 1.85e-05 | 39800 | B27 |
| 7.95 | 0.000331 | 41700 | B28 |
| 5.21 | 0.000208 | 39900 | B29 |
| 3.8 | 0.000207 | 54500 | B30 |
| 0.254 | 1.72e-05 | 67700 | B31 |
| 6.6 | 0.00053 | 80300 | B32 |
| 0.353 | 7.31e-06 | 20700 | B33 |
| 7.78 | 0.000321 | 41300 | B34 |
| 0.553 | 4.32e-05 | 78200 | B35 |
| 1.08 | 4.72e-05 | 43600 | B36 |
